First the molecules themselves.
B1: TPR t1 (parent)
chain: GACCAAUCUGCCCUCAGAGCUCGAGAACAUCUUCGGAUGCAGAGGAGGCAGGCUUCGGUGGCGCGAUAGCGCCAACGUCCUCAACCUCCAAUGCAUCCCACCACAUGAUGAUGCCUGAAGAGCCUUGGUUUUUUG

The variants in this series derive from B1. In words: polymerase ribozyme fitness, log enrichment relative to wild type (log ratio); higher = more active; in vitro selection for triplet polymerase activity. Summed up: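 Mutant libraries for each subunit of a heterodimeric triplet polymerase ribozyme were made by PCR and then transcribed. Each library underwent one round of in vitro selection in triplicate: annealing with a biotinylated primer, the partner subunit and triplets, frozen incubation at −7 °C, gel excision of extended constructs, streptavidin-bead capture and RT-PCR. Input and output libraries were Illumina-sequenced, and only genotypes with ≥10 input reads and ≥1 read per output were kept. Fitness is the logarithm, base 2, of genotype enrichment over wild-type enrichment, computed from inverse-variance-weighted replicate averages.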
For G51U A66G, the “polymerase ribozyme fitness (log ratio)” value was -4.49. For G52C G71U U132A the value was -0.43; for G52U G63A C101G C114G, -6.25. As to C53U A90G A95G, the “polymerase ribozyme fitness (log ratio)” value came out at 0.749. As to U54C C56U C82A U96A, the “polymerase ribozyme fitness (log ratio)” value was -1.95. With C53G U116C, the “polymerase ribozyme fitness (log ratio)” value is -1.68.

As for G52C C79G, the “polymerase ribozyme fitness (log ratio)” value was -0.316. Take G52U G60A: the “polymerase ribozyme fitness (log ratio)” value was -0.943. For G52U G60C the value was -0.445; for U54A C88G C89U C115A, -1.42. As for C53U C80A, the “polymerase ribozyme fitness (log ratio)” value is -4.94. With C53G G61A U106G G110C C124U, the “polymerase ribozyme fitness (log ratio)” value was -6.24. For the variant G52A G57A G127C, the “polymerase ribozyme fitness (log ratio)” value is -2.09. As for G51U C82A A95C C124U, the “polymerase ribozyme fitness (log ratio)” value is -4.21. Turning to G51U C94A U133G, the “polymerase ribozyme fitness (log ratio)” value is -3.88.

As for G51A U112A, the “polymerase ribozyme fitness (log ratio)” value is -1.47.

G51A C62A U116G C124A: the “polymerase ribozyme fitness (log ratio)” value is -5.64. For C53A C70U U78C C86G the value was -1.12; for G52C A95G G120C U125A, -0.335; for G52U A66U, -1.95. In the case of G52C U129C, the “polymerase ribozyme fitness (log ratio)” value was -1.64. As to G51A C72G U96A, the “polymerase ribozyme fitness (log ratio)” value was -3.94. For C53A C73A the value was -0.0116; for C53A G71A, -0.89; for C53U C98U, -1.46.

With C53U G61U C114U, the “polymerase ribozyme fitness (log ratio)” value was -2.37. With C53U C102U, the “polymerase ribozyme fitness (log ratio)” value was -2.44. For C53U G77U U132A, the “polymerase ribozyme fitness (log ratio)” value is -0.78.

With G52U C64U U116C, the “polymerase ribozyme fitness (log ratio)” value is -2.49. For the variant C53A A100G G113A G120C, the “polymerase ribozyme fitness (log ratio)” value is -4.41. On to C53A U112G C124A, for which the “polymerase ribozyme fitness (log ratio)” value was 0.889. In the case of C53A C72G U92G, the “polymerase ribozyme fitness (log ratio)” value is -2.94.

On to G52U U112A U126G, for which the “polymerase ribozyme fitness (log ratio)” value was -0.97. On to G52A G120U, for which the “polymerase ribozyme fitness (log ratio)” value is -0.416. As for G51C C79A, the “polymerase ribozyme fitness (log ratio)” value is -4.29. For C53A U59C A105U, the “polymerase ribozyme fitness (log ratio)” value was -2.61. C53G C56G C82G C85A C94G: the “polymerase ribozyme fitness (log ratio)” value was -2.28. For C53U C72U G77U C82G A111C the value was -1.23; for U54A G71U U126G, -2.06; for G51U C53U C85A G93C, -5.05. Regarding C53U G71A C101G U130A, the “polymerase ribozyme fitness (log ratio)” value was -3.93. As for C53A G127U, the “polymerase ribozyme fitness (log ratio)” value was -0.16. For C53G G57U G61A the value was -0.189; for C53A G69C, -1.38; for G51U G71A A90G C98G C114A C123U, -6.6. For C53G G107U C123G the value was -2.73.

For C53A G135U, the “polymerase ribozyme fitness (log ratio)” value was -0.659.

Regarding G52U U129G, the “polymerase ribozyme fitness (log ratio)” value was -2.57.

For G52A G69C C85A G122A U133A, the “polymerase ribozyme fitness (log ratio)” value was -4.36. With U54A C56G G61A, the “polymerase ribozyme fitness (log ratio)” value was -0.683. With G51U G61C, the “polymerase ribozyme fitness (log ratio)” value is -3.56.

G51U A91G: the “polymerase ribozyme fitness (log ratio)” value is -5.12. On to C53U U112A, for which the “polymerase ribozyme fitness (log ratio)” value was 0.78.

With G51U C64A G69C, the “polymerase ribozyme fitness (log ratio)” value is -3.5.

Regarding G52A C64A C101A C115A, the “polymerase ribozyme fitness (log ratio)” value is -6.42. Turning to G51A C73G C124U, the “polymerase ribozyme fitness (log ratio)” value is -1.14. With G52A G71A U96G, the “polymerase ribozyme fitness (log ratio)” value was -1.57. On to G52A A90G G93U U112C A119C, for which the “polymerase ribozyme fitness (log ratio)” value is -1.55.

Turning to C53A G120C, the “polymerase ribozyme fitness (log ratio)” value is 0.974. G51U C82U: the “polymerase ribozyme fitness (log ratio)” value was -1.77. The value for G52A U55A G120C C123A C124U G135A was 1.07; that for C53G C70U was -1.16; that for G52C C123G was 0.381. As to G51A A121U, the “polymerase ribozyme fitness (log ratio)” value is -0.44. The value for G51A G71A was -4.53; that for G51A C56U A84G A95G U96A was -5.06.

As to C53U A91U C123A, the “polymerase ribozyme fitness (log ratio)” value was -1.7. The value for C53U G57A G60C G61A C115U was -4.03; that for C53U G60U A121C was 1.26. Take U54C G61C: the “polymerase ribozyme fitness (log ratio)” value was -2.14. As to G52C U55C U78C C82U, the “polymerase ribozyme fitness (log ratio)” value was -0.756. Consider G52U U109C A118U, for which the “polymerase ribozyme fitness (log ratio)” value was -6.47.

As for G52U G61C U130G, the “polymerase ribozyme fitness (log ratio)” value is -1.58.

With C53U C86G, the “polymerase ribozyme fitness (log ratio)” value was -0.977. In the case of G51U U55G C102U, the “polymerase ribozyme fitness (log ratio)” value was -6.73. Regarding G52C G58A, the “polymerase ribozyme fitness (log ratio)” value was -1.15. U54A C94A: the “polymerase ribozyme fitness (log ratio)” value was -1.16. Take C53A A105U: the “polymerase ribozyme fitness (log ratio)” value was -2.72.

In the case of G52U G117U U133A, the “polymerase ribozyme fitness (log ratio)” value is -3.76. As to C53G C64U G127U, the “polymerase ribozyme fitness (log ratio)” value was -1.02. The value for G52C G58A C79A C85U was -2.78. For the variant C53G C80G, the “polymerase ribozyme fitness (log ratio)” value is -3.16.

G52A U55A A74U G120C C123A C124U G135A: the “polymerase ribozyme fitness (log ratio)” value is -0.0228.

Source of the values: the RNAGym collection of RNA variant scans (doi:10.1073/pnas.2313332121).
